# Reference: patent publication US20220064302A1 (GIGAGEN, published 2022)
# Legend:
# [1] = target: T1, human PD-1 (soluble PD-1 protein, R&D Systems) (human, UniProt Q15116 25-170, limits assumed); experiment: array SPR, mAb captured on anti-human IgG Fc, PD-1 as analyte
# T1 construct: the kinetics paragraphs say only 'PD-1' / 'antigen'; also called hPD-1; soluble PD-1 immunogen
# Procedure: (§1) For SPR, a moderate density (»1,000 Response Units) of an antihuman IgG-Fc reagent (Southern Biotech 2047-01) was amine-coupled to a Xantec CMD-50M chip (50 nm carboxymethyldextran medium density of functional groups) activated with 133 mM EDC (Sigma) and 33.3 mM S-NHS (ThermoFisher) in 100 mM MES pH 5.5. Then, goat anti-Human IgG Fc (Southern Biotech 2047-01) was coupled for 10 minutes at […] in 10 mM Sodim Acetate pH 4.5 (Carterra Inc.). The surface was then deactivated with 1 M ethanolamine pH 8.5 (Carterra Inc.). Running buffer used for the lawn immobilization was HBS-EPC (10 mM HEPES, 150 mM NaCl, 3 mM EDTA, 0.05% Tween 20, pH 7.4; Teknova).
# (§2) The sensor chip was then transferred to a continuous flow microspotter (CFM; Carterra Inc.) for array capturing. The mAb supernatants were diluted 50-fold ([…] final concentration) into HBS-EPC with 1 mg/mL BSA. The samples were each captured twice with 15-minute and 4-minute capture steps on the first and second prints, respectively, to create multiple densities, using a […] flow rate. The running buffer in the CFM was also HBS-EPC.
# (§3) Next, the sensor chip was loaded onto an SPR reader (MX-96 system; Ibis Technologies) for the kinetic analysis. […] PD-1 injections were 5 minutes with a 15-minute dissociation at […] in a non-regenerative kinetic series. An injection of the goat anti-Human IgG Fc capture antibody at […] was injected at the end of the series to verify the capture level of each mAb. Binding data was double referenced by subtracting an interspot surface and a blank injection and analyzed for ka (on-rate), kd (off-rate), and KD (affinity) using the Kinetic Interaction Tool software (Carterra Inc.).
# [2] = target: T1, human PD-1 (soluble PD-1 protein, R&D …); experiment: array SPR (Carterra), mAb captured, PD-1 as analyte
# Procedure: as §1, §2, §3
# PD-1 expressed on cells [3] = target: T2, PD-1 expressed on cells (human, UniProt Q15116 25-288); experiment: cell-based or functional assay
# Cyno PD-1 = target: T3, Cyno PD-1 (cyno); experiment: BLI, mAb on AHC biosensor, cyno PD-1 as analyte
# T3 construct: also called cynomolgus PD-1
# Procedure: The binding specificity and affinity of each full-length antibody towards PD-1 were determined using BLI and/or SPR. […] Anti-cyno PD-1 affinity was measured using BLI.
# (§4) For BLI, antibodies were loaded onto an Anti-Human IgG Fc (AHC) biosensor using the Octet Red96 system (ForteBio). Loaded biosensors were dipped into antigen dilutions beginning at 300 nM, with 6 serial dilutions at 1:3. Kinetic analysis was performed using a 1:1 binding model and global fitting.
# [4] = target: T1, human PD-1 (soluble PD-1 protein, R&D …); experiment: BLI (Octet Red96), mAb on AHC biosensor, PD-1 as analyte
# Procedure: as §4
# PD-1 expressed on cells [5] = target: T2, PD-1 expressed on cells; experiment: flow cytometry on PD-1 expressing Flp-In CHO cells
# T2 sequence (Q15116 25-288 limits assumed): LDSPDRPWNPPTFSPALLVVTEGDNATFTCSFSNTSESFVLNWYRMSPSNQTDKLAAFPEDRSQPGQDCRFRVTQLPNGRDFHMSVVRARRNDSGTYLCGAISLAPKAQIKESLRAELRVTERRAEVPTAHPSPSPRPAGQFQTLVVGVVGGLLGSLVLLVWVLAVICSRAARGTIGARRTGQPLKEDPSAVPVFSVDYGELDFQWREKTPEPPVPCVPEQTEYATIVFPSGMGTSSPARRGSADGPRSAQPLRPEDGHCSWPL
# T1 sequence (Q15116 25-170 limits assumed): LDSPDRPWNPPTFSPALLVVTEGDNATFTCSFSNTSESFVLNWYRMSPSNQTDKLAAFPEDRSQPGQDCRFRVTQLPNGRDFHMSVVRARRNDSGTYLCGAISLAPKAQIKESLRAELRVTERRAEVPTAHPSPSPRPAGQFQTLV
Binder,Kd [1],Kd [2],koff [2],kon [2],"PD-1/PD-L1 blockage (IC50, µg/ml) (PD-1 expressed on cells [3])",Kd (Cyno PD-1),binding result [4],binding result (PD-1 expressed on cells [5]),binding result [1]
"A7 (antibody, V domains shown, Tested as full-length mAb expressed in CHO cells; also called antibody A7; L7H7) VH: QVQLVQSGAEVKKPGASVKVSCKASGYTFTSYGINWVRQAPGQGLEWMGWISAYNGNRNYAQNLQGRVTMTSDTSTNTAYMELRSLRSYDTAVYYCARDHYDILTGYYKGGFDYWGQGTLVTVSS VL: not shown",160 nM,160 nM,0.002 s⁻¹,12000 M⁻¹ s⁻¹,,,,,
"A9 (antibody, V domains shown, Tested as full-length mAb expressed in CHO cells; also called antibody A9; L9H9) VH: QVQLVESGGGVVQPGRSLRLSCAASGFTFSNYGMHWVRQAPGKGLEWVAVIWYDGTNKFYADSVKGRFTISRDNSKNTLYLQMNSLRAEDTAVYYCATNSDDYWGQGTLVTVSS VL: AIQMTQSPSSLSASVGDRVTITCRASQDIRNDLGWYQQKPGKAPKLLIYAASLLRSGVPSRFSGSGSGTDFTLTISSLQPEDFATYYCLQDNNYPRTFGQGTKVEIK",24 nM,24 nM,0.00079 s⁻¹,32000 M⁻¹ s⁻¹,0.461 µg/mL,42 nM,,,
"A14 (antibody, V domains shown, Tested as full-length mAb expressed in CHO cells; also called antibody 14; L14H14) VH: not shown VL: DIQMTQSPSSLSASVGDRVTITCRASQGIRNDLGWYQQKPGKAPKRLIYVASSLQSGVPSRFSGSGSGTEFTLTISSLQPEDFATYYCLQHNSYPLTFGGGTKVEIK",,,,,,,no binding (tested: antigen dilutions beginning at 300 nM),binds,
"Pembrolizumab (antibody, V domains shown) VH: QVQLVQSGVEVKKPGASVKVSCKASGYTFTNYYMYWVRQAPGQGLEWMGGINPSNGGTNFNEKFKNRVTLTTDSSTTTAYMELKSLQFDDTAVYYCARRDYRFDMGFDYWGQGTTVTVSS VL: EIVLTQSPATLSLSPGERATLSCRASKGVSTSGYSYLHWYQQKPGQAPRLLIYLASYLESGVPARFSGSGSGTDFTLTISSLEPEDFAVYYCQHSRDLPLTFGGGTKVEIKR",,,,,,14 nM,,,
"A1 (antibody, V domains shown, Tested as full-length mAb expressed in CHO cells; also called antibody A1; L1H1) VH: QVQLVESGGGVVQPGRSLRLSCAASGFTFSNYGMHWVRQAPGKGLEWVAVIWYDGSNKYYTDSVKGRFTISRDNSKNTLYLQMNSLRAEDTAVYYCAGGGNYYGDYWGQGTLVTVSS VL: DIQMTQSPSSLSASVGDRVTITCRASQGIRNDLGWYQQKPGKAPKRLIYVASSLQSGVPSRFSGSGSGTEFTLTISSLQPEDFATYYCLQHNSYPLTFGGGTKVEIKR",3.7 nM,3.7 nM,2.6e-05 s⁻¹,7000 M⁻¹ s⁻¹,2.39 µg/mL,,,,
"A2 (antibody, V domains shown, Tested as full-length mAb expressed in CHO cells; also called antibody A2; L2H2) VH: QVQLVESGGGVVQPGRSLRLSCAASGFTFSSYGMHWVRQAPGKGLEWVALISYDGSNKYYADSVKGRFTISRDNSKNTLYLQMNSLRAEDTAVYYCARGGYFDPYGDYYYGMDVWGQGTTVTVSS VL: DIQMTQSPSSLSASVGDRVTITCRASQAIRNDLGWFQQKPGKAPKRLIYAASSLQSGVPLRFSGSGSGTEFTLTISSLQPEDFATYYCLQHNSFPWTFGQGTKVEIKR",130 nM,130 nM,0.011 s⁻¹,80000 M⁻¹ s⁻¹,,,,,
"A6 (antibody, V domains shown, Tested as full-length mAb expressed in CHO cells; also called antibody A6; L6H6) VH: QVQLVESGGGVVQPGRSLRLSCAASGFTFSSYGMHWVRQAPGKGLEWVAVIWYDGSNKYYADSVKGRFTISRDNSKNTLYLQMNSLRAEDTAVYYCAGGGNYWGDFWGQGTLVTVSS VL: DIQMTQSPSSLSASVGDRVTITCRASQGIRNDLGWYQQKPGKAPKRLLYAASNLQLGVPSRFSGSGSETEFTLTISSLQPEDFATYYCLQHNSYPWTFGQGTKVEIKR",70 nM,70 nM,0.00086 s⁻¹,12000 M⁻¹ s⁻¹,1.12 µg/mL,26 nM,,,
"A3 (antibody, V domains shown, Tested as full-length mAb expressed in CHO cells; also called antibody A3; L3H3) VH: QVQLVESGGGEVQPGRSLRLSCAASGFTFSDYGMHWVRQAPGKGLEWVAVIWYDGSNKYYADSVKGRFTISRDNSKNTLYLQMNSLRAEDTAVYYCAGGGSYWGDYWGQGTLVTVSS VL: DIQMTQSPSSLSASVGDRVTITCRASQGIRNELGWYQQKPGKAPKRLIYAASSLQSGVPSRFSGSGSGTEFTLTISSLQPEDFATYYCLQHYIYPWTFGQGTKVEIKR",230 nM,230 nM,0.0024 s⁻¹,10000 M⁻¹ s⁻¹,1.34 µg/mL,,,,
"A10 (antibody, V domains shown, Tested as full-length mAb expressed in CHO cells; also called antibody A10; L10H10) VH: QVQLVQSGAEVKKPGASVKVSCKASGYTFAIYGISWVRQAPGQGLEWMGWISAYSDNSNYAQKLQGRVTMTTDTSTSTAYMELRSLRSDDTAVYYCVRDGSHGDYYYGMDVWGQGTTVTVSS VL: DIQMTQSPSSLSASVGDRVTITCRASQGISSWLAWYQQKPEKAPKSLIYAASSLQSGVPSRFSGSGSGTDFTLTISSLQPEDFATYYCQQYNSYPYTFGQGTKLEIK",10 nM,10 nM,6.9e-05 s⁻¹,6600 M⁻¹ s⁻¹,1.64 µg/mL,12 nM,,,
"A11 (antibody, V domains shown, Tested as full-length mAb expressed in CHO cells; also called antibody A11; L11H11) VH: QVQLVQSGAEVKKPGASVKVSCRASGYTFTNYGISWVRQAPGQGLEWMGWISVYSDNTHYPQKLQGRVTMTTDTSTSTAYMELRSLRSDDTAVYYCARDGSHGDYYYVMDLWGQGTTVTVSS VL: DIQMTQSPSSLSASVGDSITITCRASQGISSWLAWYQQKPEKAPKSLIYAASSLQSGVPSRFSGSGSGTDFTLTISSLQPEDFATYYCQQFNSYPYTFGQGTKLEIK",,,,,1.31 µg/mL,,,,no binding (tested: PD-1 injected up to 500 nM)
"A4 (antibody, V domains shown, Tested as full-length mAb expressed in CHO cells; also called antibody A4; L4H4) VH: QVQLVQSGAEVKKPGASVKVSCKASGYTFATYGVSWVRQAPGQGLEWMGWISAYSDNINYAQNLQGRVTITTDTSTSTAYMELRSLRSDDTAVYYCARDGSHGDYYYGMDVWGQGTTVTVSS VL: DIQMTQSPSSLSASVGDRVTITCRASQGISSWLAWYQQKPEKAPKSLIYAASSLQSGVPSRFSGSGSGTDFTLTISSLQPEDFATYYCQQYNSYPYTFGQGTKLEIKR",20 nM,20 nM,0.00025 s⁻¹,12000 M⁻¹ s⁻¹,2.12 µg/mL,0.1 nM,,,
"A8 (antibody, V domains shown, Tested as full-length mAb expressed in CHO cells; also called antibody A8; L8H8) VH: QVQLVESGGGVVQPGRSLRLSCAASGFTFSSYGMHWVRQAPGKGLEWVAVIWYDGSIKYYADSVKGRFTISRDNSKNTLYLQMNSLRAEDTAVYYCANDILTGSFDYWGQGTLVTVSS VL: EIVLTQSPATLSLSPGERATLSCRASQSVSSYLAWYQQKPGQAPRLLIYDASNRATGIPARFSGSGSGTDFTLTISSLEPEDFAVYYCQQRNTWPYTFGQGTKLEIKR",410 nM,410 nM,0.035 s⁻¹,84000 M⁻¹ s⁻¹,,447 nM,,,
"A5 (antibody, V domains shown, Tested as full-length mAb expressed in CHO cells; also called antibody A5; L5H5) VH: QVQLVESGGGVVQPGRSLRLSCAASGFTFSNYGTHWVRQAPGKGLEWVAVIWYDGSNKYYADSVKGRFTISRDNSKNTLYLQMNSLRAEDTAVYYCARDRIYCSSTRCIGFGYYYYGMDVWGQGTTVTVSS VL: AIQLTQSPSSLSASVGDRVTITCRASQGISSALAWYQQKPGKAPKLLIYDASSLESGVPSRFSGSGSGTDFTLTISSLQPEDFATYYCQQFNNYPWTFGQGTKVEIKR",35 nM,35 nM,0.00023 s⁻¹,6400 M⁻¹ s⁻¹,1.31 µg/mL,,,,
